Laboratory results published in patent publication US20190338002A1 (Pieris, published 2019).
Substitutions are numbered along the chain they refer to.

T1: human alpha CGRP (SEQ ID NO: 80) (human, not fully specified)
T1 construct: also called human αCGRP; hαCGRP
T1 peptide: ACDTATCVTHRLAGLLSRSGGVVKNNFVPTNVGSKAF

T2: rat beta CGRP (SEQ ID NO: 83) (rat, not fully specified)
T2 construct: also called rat βCGRP; rat β-CGRP
T2 peptide: T1 peptide with A1S, D3N, N25D

T3: rat alpha CGRP (SEQ ID NO: 82) (rat)
T3 construct: also called rat αCGRP; rat α-CGRP
T3 peptide: T1 peptide with A1S, D3N, N25D, K35E

T4: human beta CGRP (SEQ ID NO: 81) (human, not fully specified)
T4 construct: also called human βCGRP; hβCGRP
T4 peptide: T1 peptide with D3N, V22M, N25S

B1: tag-free lipocalin mutein SEQ ID NO: 88 (designed binder)
chain: GQDSTSDLIPAPPLSKVPLQQNFQDNQFHGKWYVVGRAGNDVLREDKDPEKMEATIYELKEDKSYNVTDVGFVQKRCMYVTHTFVPGSQPGEFTLGNIESYPGVTSALVRVVSTDYNQHAMVFVKLVKQNRELFEITLYGRTKELTSELKENFIRFSKSLGLPENHIVFPVPIDQCIDG
notes: biotinylated by NHS chemistry for capture in SPR; also called tag-free mutein 88
B2: tag-free lipocalin mutein SEQ ID NO: 92 (designed binder)
chain: B1 chain with I9K, N66Q, G179D
notes: biotinylated by NHS chemistry for capture in SPR; also called tag-free mutein 92
B3: tag-free lipocalin mutein SEQ ID NO: 90 (designed binder)
chain: B1 chain with I9K
notes: biotinylated by NHS chemistry for capture in SPR; also called tag-free mutein 90
B4: tag-free lipocalin mutein SEQ ID NO: 93 (designed binder)
chain: B1 chain with P10H, N66Q, G179D
notes: biotinylated by NHS chemistry for capture in SPR; also called tag-free mutein 93
B5: tag-free lipocalin mutein SEQ ID NO: 89 (designed binder)
chain: B1 chain with N66Q, G179D
notes: biotinylated by NHS chemistry for capture in SPR; also called tag-free mutein 89
B6: tag-free lipocalin mutein SEQ ID NO: 91 (designed binder)
chain: B1 chain with P10H
notes: biotinylated by NHS chemistry for capture in SPR; also called tag-free mutein 91
B7: tag-free lipocalin mutein SEQ ID NO: 87 (designed binder)
chain: GQDSTSDLIPAPPLSKVPLQQNFQDNQFQGKWYVVGWAGNTLLREDKDPIKMQAMIYELKEDKSYNVTWVYFADKKINYHIETFVPGSQPGEFTLGTIKSYPGETPILVRVVSTNYNQHAMVFFKGVNQNREIFEIVLYGRTKELTNELKENFIRFSKSLGLPENHIVFPVPIDQEIDG
notes: biotinylated by NHS chemistry for capture in SPR; also called tag-free mutein 87
B8: lipocalin mutein SEQ ID NO: 23 (designed binder)
chain: QDSTSDLIPAPPLSKVPLQQNFQDNQFHGKWYVVGWAGNTLLREDKDPIKMQAKIYELKEDRSYNVTWVYFADKKCNYHIETFVPGSQPGEFTLGLIKSYPGETPILVRVVSTNYNQHAMVFFKGVNQNREIFEIILYGRTKELTNELKENFIRFSKSLGLPENHIVFPVPIDQCIDGSAWSHPQFEK
notes: biotinylated by NHS chemistry for capture in SPR
B9: lipocalin mutein SEQ ID NO: 26 (designed binder)
chain: B8 chain with N77R, L96T, Y100H
notes: as for B8
B10: lipocalin mutein SEQ ID NO: 24 (designed binder)
chain: B8 chain with D73E, L96T
notes: as for B8
B11: lipocalin mutein SEQ ID NO: 17 (designed binder)
chain: QDSTSDLIPAPPLSKVPLQQNFQDNQFHGKWYVVGRAGNDVLREDKDPEKMEATIYELKEDKSYNVTDVGFVQKRCMYVTHTFVPGSQPGEFTLGNIESYPGVTSALVRVVSTDYNQHAMVFVKLVKQNRELFEITLYGRTKELTSELKENFIRFSKSLGLPENHIVFPVPIDQCIDGSAWSHPQFEK
notes: as for B8
B12: lipocalin mutein SEQ ID NO: 19 (designed binder)
chain: B11 chain with V41T, F71L, R75K, T80I, E98K, D114N, N129S
notes: as for B8
B13: lipocalin mutein SEQ ID NO: 20 (designed binder)
chain: B11 chain with V41T, E44K, R75K, T80I, E98K, D114N
notes: as for B8

Target: T1, human alpha CGRP (SEQ ID NO: 80)
Assay: SPR, Biacore T200, 37 C; biotinylated mutein captured, human alpha CGRP analyte
Description: (§1) The Biotin CAPture Kit (GE Healthcare) was used to immobilized biotinylated lipocalin muteins to a chip surface. Muteins were biotinylated using standard NHS chemistry. Fifty-fold diluted Biotin CAPture Reagent (streptavidin conjugated with ss-DNA oligo) was captured on a Sensor Chip CAP with the pre-immobilized complementary ss-DNA oligo. Thereafter, biotinylated muteins at 200 nM were applied for 60 s at a flow rate of 10 μL/min.
The dilutions were injected with association times of 600 s and dissociation times of 1800 s. Regeneration of the chip surface was achieved by injecting 6 M Guanidinium-HCl+0.25 M NaOH (120 s) with a flow rate of 10 μL/min, followed by injecting 30% acetonitrile+0.25 M NaOH (120 s) with a flow rate of 10 μL/min. Injection of regeneration solutions was followed by an extra wash step with HBS-EP+ running buffer and a stabilization period of 60 s.
(§2) The data were double-referenced by subtraction of the corresponding signals measured for the control channel (loaded with Biotin CAPture reagent only) and by subtraction of buffer injections from the binding responses. Association rate constant ka and dissociation rate constant kd for the binding reaction were determined using Biacore T200 Evaluation Software version 1.0 for data processing and kinetic fitting. The data were globally fit with 1:1 binding model.

Binder | Kd
B1 | 0.008 nM
B2 | 0.01 nM
B3 | 0.012 nM
B4 | 0.011 nM
B5 | 0.006 nM
B6 | 0.01 nM
B7 | 0.081 nM

Target: T1, human alpha CGRP (SEQ ID NO: 80)
Assay: cell-based or functional assay

Binder | cAMP assay IC50
B1 | 0.17 nM
B2 | 0.18 nM
B3 | 0.16 nM
B4 | 0.13 nM
B5 | 0.17 nM
B6 | 0.16 nM
B7 | 0.66 nM

Target: T2, rat beta CGRP (SEQ ID NO: 83)
Assay: SPR, 37 C, mutein captured, CGRP analyte
Description: as §1, with “to immobilize” for “to immobilized”, “chemistry. Undiluted” for “chemistry. Fifty-fold diluted”, “at 1 μg/mL” for “at 200 nM”, “for 300” for “for 60”, “of 5” for “of 10”
(§3) CGRP species were applied in three concentrations of 30 nM, 3 nM and 0.3 nM at a flow rate of 30 μL/min or in a single concentration of 25 nM per cycle as shown in FIG. 2. The dilutions were injected with association times of 180 s and dissociation times of 5400 sec to obtain ka and kd information. Regeneration of the chip surface was achieved by injecting 6 M Guanidinium-HCl+0.25 M NaOH (120 s) with a flow rate of 10 μL/min. Injection of regeneration solutions was followed by an extra wash step with HBS-EP+(1×; BR-1006-69; GE Healthcare) running buffer and a stabilization period of 120 s.
as §2, with “V2.0” for “version 1.0”

Binder | Kd | koff | kon
B8 | 8 pM | 1.34e-05 s⁻¹ | 1.74e+06 M⁻¹ s⁻¹
B9 | 6 pM | 9.98e-06 s⁻¹ | 1.56e+06 M⁻¹ s⁻¹
B10 | 7 pM | 1.22e-05 s⁻¹ | 1.69e+06 M⁻¹ s⁻¹
B11 | 12 pM | 5.99e-05 s⁻¹ | 5.18e+06 M⁻¹ s⁻¹
B12 | 6 pM | 1.21e-05 s⁻¹ | 2.01e+06 M⁻¹ s⁻¹
B13 | 13 pM | 1.84e-05 s⁻¹ | 1.38e+06 M⁻¹ s⁻¹

Target: T1, human alpha CGRP (SEQ ID NO: 80)
Assay: SPR, 37 C, mutein captured, CGRP analyte
Description: as §1, with “to immobilize” for “to immobilized”, “chemistry. Undiluted” for “chemistry. Fifty-fold diluted”, “at 1 μg/mL” for “at 200 nM”, “for 300” for “for 60”, “of 5” for “of 10”
as §3
as §2, with “V2.0” for “version 1.0”

Binder | Kd | koff | kon
B8 | 0.011 nM | 1.84e-05 s⁻¹ | 1.64e+06 M⁻¹ s⁻¹
B9 | 0.013 nM | 1.99e-05 s⁻¹ | 1.5e+06 M⁻¹ s⁻¹
B10 | 0.009 nM | 1.4e-05 s⁻¹ | 1.6e+06 M⁻¹ s⁻¹
B11 | 0.011 nM | 3.66e-05 s⁻¹ | 3.34e+06 M⁻¹ s⁻¹
B12 | 0.005 nM | 1.07e-05 s⁻¹ | 2.26e+06 M⁻¹ s⁻¹
B13 | 0.012 nM | 1.75e-05 s⁻¹ | 1.45e+06 M⁻¹ s⁻¹

Target: T3, rat alpha CGRP (SEQ ID NO: 82)
Assay: SPR, 37 C, mutein captured, CGRP analyte
Description: as §1, with “to immobilize” for “to immobilized”, “chemistry. Undiluted” for “chemistry. Fifty-fold diluted”, “at 1 μg/mL” for “at 200 nM”, “for 300” for “for 60”, “of 5” for “of 10”
as §3
as §2, with “V2.0” for “version 1.0”

Binder | Kd | koff | kon
B8 | 0.009 nM | 1.3e-05 s⁻¹ | 1.39e+06 M⁻¹ s⁻¹
B9 | 0.015 nM | 2.01e-05 s⁻¹ | 1.31e+06 M⁻¹ s⁻¹
B10 | 0.015 nM | 2.08e-05 s⁻¹ | 1.43e+06 M⁻¹ s⁻¹
B11 | 0.031 nM | 8.44e-05 s⁻¹ | 2.75e+06 M⁻¹ s⁻¹
B12 | 0.024 nM | 3.02e-05 s⁻¹ | 1.25e+06 M⁻¹ s⁻¹
B13 | 0.028 nM | 2.41e-05 s⁻¹ | 867000 M⁻¹ s⁻¹

Target: T4, human beta CGRP (SEQ ID NO: 81)
Assay: SPR, 37 C, mutein captured, CGRP analyte
Description: as §1, with “to immobilize” for “to immobilized”, “chemistry. Undiluted” for “chemistry. Fifty-fold diluted”, “at 1 μg/mL” for “at 200 nM”, “for 300” for “for 60”, “of 5” for “of 10”
as §3
as §2, with “V2.0” for “version 1.0”

Binder | Kd | koff | kon
B8 | 1 pM | 4.11e-06 s⁻¹ | 2.84e+06 M⁻¹ s⁻¹
B9 | 3 pM | 7.6e-06 s⁻¹ | 2.44e+06 M⁻¹ s⁻¹
B10 | 4 pM | 9.01e-06 s⁻¹ | 2.52e+06 M⁻¹ s⁻¹
B11 | 1 pM | 1.44e-05 s⁻¹ | 1.36e+07 M⁻¹ s⁻¹
B12 | 1 pM | 6.67e-06 s⁻¹ | 4.56e+06 M⁻¹ s⁻¹
B13 | 4 pM | 7.89e-06 s⁻¹ | 2.18e+06 M⁻¹ s⁻¹

Target: T1, human alpha CGRP (SEQ ID NO: 80)
Assay: SPR as in Example 5
Description: as §1, with “to immobilize” for “to immobilized”, “chemistry. Undiluted” for “chemistry. Fifty-fold diluted”, “at 1 μg/mL” for “at 200 nM”, “for 300” for “for 60”, “of 5” for “of 10”
as §3

Binder | Kd
B11 | 0.02 nM

Target: T4, human beta CGRP (SEQ ID NO: 81)
Assay: SPR as in Example 5
Description: as §1, with “to immobilize” for “to immobilized”, “chemistry. Undiluted” for “chemistry. Fifty-fold diluted”, “at 1 μg/mL” for “at 200 nM”, “for 300” for “for 60”, “of 5” for “of 10”
as §3

Binder | Kd
B11 | 3 pM

Target: T1, human alpha CGRP (SEQ ID NO: 80)
Assay: cell-based or functional assay
Remark: another data set of the same source

Binder | cAMP assay IC50, SK-N-MC cells
B11 | 0.09 nM

Target: T4, human beta CGRP (SEQ ID NO: 81)
Assay: cell-based or functional assay

Binder | cAMP assay IC50, SK-N-MC cells
B11 | 0.13 nM

Target: T2, rat beta CGRP (SEQ ID NO: 83)
Assay: cell-based or functional assay

Binder | IC50, CGRP-induced cAMP production, L6 cells
B8 | 0.17 nM
B9 | 0.16 nM
B10 | 0.16 nM
B11 | 0.11 nM
B12 | 0.17 nM
B13 | 0.11 nM

Target: T1, human alpha CGRP (SEQ ID NO: 80)
Assay: cell-based or functional assay
Remark: another data set of the same source

Binder | IC50, CGRP-induced cAMP production, SK-N-MC cells
B8 | 0.18 nM
B9 | 0.16 nM
B10 | 0.12 nM
B11 | 0.11 nM
B12 | 0.14 nM
B13 | 0.14 nM

Target: T3, rat alpha CGRP (SEQ ID NO: 82)
Assay: cell-based or functional assay

Binder | IC50, CGRP-induced cAMP production, L6 cells
B8 | 0.07 nM
B9 | 0.05 nM
B10 | 0.07 nM
B11 | 0.06 nM
B12 | 0.07 nM
B13 | 0.08 nM

Target: T4, human beta CGRP (SEQ ID NO: 81)
Assay: cell-based or functional assay
Remark: another data set of the same source

Binder | IC50, CGRP-induced cAMP production, SK-N-MC cells
B8 | 0.2 nM
B9 | 0.26 nM
B10 | 0.19 nM
B11 | 0.23 nM
B12 | 0.21 nM
B13 | 0.17 nM
